Patent publication US20230235047A1 (Innovent, published 2023)

What was measured:
[1] = biological target: T1, human Claudin18.2 protein (P50251802, GenScript) (human, UniProt P56856-2 1-261, limits assumed); experiment: SPR (Biacore T200), human Claudin18.2 amine-coupled to the chip, antibody 0-100 nM in the mobile phase, 1:1 model
T1 construct: also called human CLDN18.2
Procedure: According to the manufacturer's instructions, human Claudin18.2 (GenScrip, P50251802) was coupled to the surface of a CMS chip (GE Healthcare, 29-1496-03) using the amino coupling kit (GE Healthcare, BR-1006-33), and the remaining activation sites were blocked by injection of 1 M ethanolamine after coupling. According to the manufacturer's instructions, the binding and dissociation between the antigen on the chip surface and antibodies in the mobile phase were determined by Biacore (GE Healthcare, T200) to obtain affinity and kinetic constants. The antibodies (0-100 nM) after gradient dilution flowed over the chip surface in an order from low to high concentrations, with the binding time of 180 s and the dissociation time of 600 s. Finally, the chip was regenerated using 10 mM Glycine pH 1.5 (GE Healthcare, BR-1003-54). Kinetic analysis of the data results were performed using Biacore T200 analysis software with a 1:1 binding model.

[2] = biological target: T2, human CLDN18.1 on cells (CHO-hCLDN18.1) (human, UniProt P56856 1-261); experiment: flow cytometry, hybridoma supernatant on CHO-hCLDN18.1
T2 construct: whole, on cells; also called human Claudin18.1

B1: Hz51H10 (antibody, human IgG1, kappa, V domains shown)
VH: QVQLVQSGAEVKKPGASVKVSCKASGYTFTKYIIQWVRQAPGQRLEWMGYINPYNDDTKYNEKFKGRVTITRDTSASTAYMELSSLRSEDMAVYYCARTYYGNSFPNWGQGTLVTVSS
VL: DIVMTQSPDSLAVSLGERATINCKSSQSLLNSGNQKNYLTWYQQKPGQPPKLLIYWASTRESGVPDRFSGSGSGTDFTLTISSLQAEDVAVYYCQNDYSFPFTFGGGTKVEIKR
Q: For B1, which Kd [1] is on record?
A: 1.94 nM

Q: And the koff [1]?
A: 0.000631 s⁻¹

Q: And the kon [1]?
A: 325000 M⁻¹ s⁻¹

B2: 3G3 (antibody secreted by the hybridoma, culture supernatant) (antibody, V domains shown)
VH: QVQLQQSGPQLVRPGASVKISCKASGYSFTTYWMHWVKQRPGQGLEWIGLIDPSDSETRLNQKFKDKATLTVDKSSSTAYMRLSSPTSEDSAVYYCASNRWLLGWGQGTLVTVSS
VL: DIQMIQSPSSLTVTAGEKVTMSCKSSQSLLNSGNQKNYLTWYQQKPGQPPKLLIYWASTRESGVPDRFTGSGSGTDFTLTISSVQTEDLAVYYCQNDYSYPLTFGAGTKLEIK
Q: Does B2 bind [2]?
A: no binding

B3: 46F6 (antibody secreted by the hybridoma, culture supernatant) (antibody, V domains shown)
VH: QVQLKESGPGLVAPSQSLSITCTVSGFSLTDYGVSWIRQPPGKGLEWLGVMWGGGNTYYNSALKSRLSISKDNSKSQVFLKMNSLQSDDTAMYYCAKQRYGGNAMDYWGQGTSVTVSS
VL: DIQMTQSPSSLTVTAGEKVTMSCKSSQSLLNSGNQRNYLTWYQQIPGQPPKLLIYWASTRESGVPNRFTGSGSGAEFTLTISSVQTEDLAVYYCQNSYFYPFTFGAGTKLELK
Q: Does B3 bind [2]?
A: no binding

B4: 69H9 (antibody secreted by the hybridoma, culture supernatant) (antibody, V domains shown)
VH: EVQLQQSGPELMKPGASVKISCKATGYSFSSYNIHWVKQSHGKSLEWIGYIAPFNGDSRYNQKFKGKATVTVDKSSSTAYMHLSSLTSEDSAVYYCGRLNRGNSLDYWGQGTSLTVSS
VL: DIVMTQSPSSLTVTAGEKVTMSCKSSQSLFNSGNQRNYLTWYQQKPGQPPKLLIYWASTRESGVPDRFTGSGSGTDFTLTISSVQAEDLAFYYCQNNYIYPLTFGAGTKLELK
Q: Does B4 bind [2]?
A: no binding

B5: 25C7 (antibody secreted by the hybridoma, culture supernatant) (antibody, V domains shown)
VH: EVMLVESGGGLVQPGGSRKLSCAASGFTFSDYGMAWVRQAPGKGPEWVAFINNLAYSIYYVDTVTGRFTISRENAKDTLYLEMSSLRSEDTALYYCARFTTGNVMDYWGQGTSVTVSS
VL: DIVMTQSPSSLTVTAGEKVTMTCKSSQSLLNGGNQKNYLTWYQQKPGQPPKLLIYWSSTRESGVPDRFTGSGSGTDFTLTITSVQAEDLAVYYCQNSYSYPLTFGSGTKLELK
Q: Does B5 bind [2]?
A: no binding

B6: 51H10 (antibody secreted by the hybridoma, culture supernatant) (antibody, V domains shown)
VH: EVQLQQSVPELVKPGASVRMSCKASGYTFTKYIIQWVKQKPGQGLEWIAYINPYNDDTKYNEKFKGKATLTSDKSASTAYMELSSLTSEDSAVYYCATTYYGNSFPNWGQGTLVTVSA
VL: DIVMTQSPSSLTVTAGERVTMTCKSSQSLLNSGNQKNYLTWYQQKPGQPPKLLIYWASTRESGVPDRFTGSGSGTDFTLTISSLQSEDLAVYFCQNDYSFPFTFGSGTKLEIK
Q: Does B6 bind [2]?
A: no binding

B7: 38F8 (antibody secreted by the hybridoma, culture supernatant) (antibody, V domains shown)
VH: EVQLVESGGGLVKPGGSLKLSCAASGFSFSDYGMHWVRQAPEKGLEWIAYINSGSRTLYYADTVKGRFTISRDNAKNTLFLQMTSLRSEETAMYYCTRNAYYGNAMDYWGQGTSVTVSS
VL: DIQMTQSPSSLTVTAGEKVTMSCKSSQSLLNSGNQRNYLTWYQQIPGQPPKLLIYWSSTRGSGVPDRFTGSGSGTDFTLTISSVQAEDLAVYFCQNVYYYPFTFGSGTRLEVK
Q: Does B7 bind [2]?
A: no binding

B8: 59C1 (antibody secreted by the hybridoma, culture supernatant) (antibody, V domains shown)
VH: QVQLKESGPDLVKPSQSLSLTCTVTGYSITSGYGWNWIRQFPGNKLEWMGYIHFSGSTNYNPSLKSRISITRDTSKNQFFLQLNSVTTEDTATYYCARSGKGNAMDYWGQGTSVTVSS
VL: DIQMTQSPSSLTVTAGEKVTMSCKSSQSLLNSGNQKNYLTWYQQKPGQPPKLLIYWASTRESGVPDRFTGSGSGTDFTLTVINMQAEDLALYYCQNDYYFPFTFGSGTKLEIK
Q: Does B8 bind [2]?
A: no binding

B9: Hz38F8 (antibody, human IgG1, kappa, V domains shown)
VH: EVQLVESGGGLVQPGGSLRLSCAASGFSFSDYGMHWVRQAPGKGLEWVSYINSGSRTLYYADTVKGRFTISRDNAKNSLYLQMNSLRDEDTAVYYCARNAYYGNAMDYWGQGTLVTVSS
VL: DIVMTQSPDSLAVSLGERATINCKSSQSLLNSGNQRNYLTWYQQKPGQPPKLLIYWSSTRGSGVPDRFSGSGSGTDFTLTISSLQAEDVAVYYCQNVYYYPFTFGQGTRLEIKR
Q: Which Kd [1] does the source give for B9 here?
A: 0.314 nM

Q: And the koff [1]?
A: 9.97e-05 s⁻¹

Q: And the kon [1]?
A: 318000 M⁻¹ s⁻¹

B10: Hz59C1 (antibody, human IgG1, kappa, V domains shown)
VH: QVQLQESGPGLVKPSETLSLTCTVSGYSITSGYGWNWIRQPPGKGLEWIGYIHFSGSTNYNPSLKSRVTISVDTSKNQFSLKLSSVTAADTAVYYCARSGKGNAMDYWGQGTLVTVSS
VL: DIVMTQSPDSLAVSLGERATINCKSSQSLLNSGNQKNYLTWYQQKPGQPPKLLIYWASTRESGVPDRFSGSGSGTDFTLTISSLQAEDVAVYYCQNDYYFPFTFGGGTKVEIKR
Q: For B10, which Kd [1] is on record?
A: 1.75 nM

Q: What about the koff [1] of the same binder?
A: 0.000433 s⁻¹

Q: And the kon [1]?
A: 248000 M⁻¹ s⁻¹

B11: Hz3G3 (antibody, human IgG1, kappa, V domains shown)
VH: QVQLVQSGAEVKKPGASVKVSCKASGYSFTTYWMHWVRQAPGQGLEWMGLIDPSDSETRLNQKFKDRVTMTVDTSTSTVYMELSSLRSEDTAVYYCASNRWLLGWGQGTLVTVSS
VL: DIVMTQSPDSLAVSLGERATINCKSSQSLLNSGNQKNYLTWYQQKPGQPPKLLIYWASTRESGVPDRFSGSGSGTDFTLTISSLQAEDVAVYYCQNDYSYPLTFGQGTKLEIKR
Q: What does the source list for B11?
A: Kd [1]: 14.2 nM; koff [1]: 0.000799 s⁻¹; kon [1]: 56500 M⁻¹ s⁻¹

B12: Hz25C7 (antibody, human IgG1, kappa, V domains shown)
VH: EVQLVESGGGLVQPGGSLRLSCAASGFTFSDYGMAWVRQAPGKGLEWVAFINNLAYSIYYVDTVTGRFTISRDNAKNSLYLQMNSLRAEDTAVYYCARFTTGNVMDYWGQGTLVTVSS
VL: DIVMTQSPDSLAVSLGERATINCKSSQSLLQGGNQKNYLTWYQQKPGQPPKLLIYWSSTRESGVPDRFSGSGSGTDFTLTISSLQAEDVAVYYCQNSYSYPLTFGGGTKVEIKR
Q: What does the source list for B12?
A: Kd [1]: 9.84 nM; koff [1]: 0.00114 s⁻¹; kon [1]: 116000 M⁻¹ s⁻¹

B13: Hz46F6 (antibody, human IgG1, kappa, V domains shown)
VH: QVQLQESGPGLVKPSETLSLTCTVSGFSLTDYGVSWIRQPPGKGLEWIGVMWGGGNTYYNSALKSRVTISVDTSKNQFSLKLSSVTAADTAVYYCARQRYGGNAMDYWGQGTLVTVSS
VL: DIVMTQSPDSLAVSLGERATINCKSSQSLLNSGNQRNYLTWYQQKPGQPPKLLIYWASTRESGVPDRFSGSGSGTDFTLTISSLQAEDVAVYYCQNSYFYPFTFGGGTKVEIKR
Q: What does the source list for B13?
A: Kd [1]: 1.03 nM; koff [1]: 0.00015 s⁻¹; kon [1]: 147000 M⁻¹ s⁻¹

B14: Hz14A5 (antibody, human IgG1, kappa, V domains shown)
VH: QVQLQESGPGLVKPSETLSLTCTVSGFSLNSYGVGWIRQPPGKGLEWIGVIWGDVSTNYHSVLISRVTISKDTSKNQVSLKLSSVTAADTAVYYCARITRGNAMDYWGQGTLVTVSS
VL: DIVMTQSPDSLAVSLGERATINCKSSQSLLNSGNQRNYLTWYQQKPGQPPKLLIYWASTRKSGVPDRFSGSGSGTDFTLTISSLQAEDVAVYYCQNNYLFPLTFGGGTKVEIKR
Q: Which Kd [1] does the source give for B14 here?
A: 0.49 nM

Q: What about the koff [1] of the same binder?
A: 0.000208 s⁻¹

Q: What about the kon [1] of the same binder?
A: 424000 M⁻¹ s⁻¹

B15: 14A5 (antibody secreted by the hybridoma, culture supernatant) (antibody, V domains shown)
VH: QVQLKESGPGLVAPSQSLSITCSVSGFSLNSYGVGWVRQPPGKGLEWLGVIWGDGSTNYHSVLISRLSIRKDNSKSQVFLKLNSLQTDDTATYYCAMITRGNAMDYWGQGTSVTVSS
VL: DIVMTQSPSSLTVTAGEKITMSCKSSQSLLNSGNQRNYLTWYQQKPGQTPKLLIYWASTRKSGVPDRFTGSGSGTDFTLTISSVQAEDLAVYSCQNNYLFPLTFGAGTKLELK
Q: Does B15 bind [2]?
A: no binding
